According to article PMC8519931:

Target: GFP-LC3B (UniProt Q9GZQ8)
Test: co-IP; GFP-LC3 captured on GFP-Trap magnetic beads from HEK-293 T lysates (NP-40 IP lysis buffer: 50 mM Tris-HCl pH 7.5, 150 mM NaCl, 1 mM EDTA, 1% IGEPAL), 1 h at 4 °C; HA-BNIP3 forms detected by blot; cells with or without 100 nM bafilomycin A1 and with or without exogenous FLAG-ULK1

Sequence of HA-BNIP3 (WT) (natural protein) (Q12983 whole entry): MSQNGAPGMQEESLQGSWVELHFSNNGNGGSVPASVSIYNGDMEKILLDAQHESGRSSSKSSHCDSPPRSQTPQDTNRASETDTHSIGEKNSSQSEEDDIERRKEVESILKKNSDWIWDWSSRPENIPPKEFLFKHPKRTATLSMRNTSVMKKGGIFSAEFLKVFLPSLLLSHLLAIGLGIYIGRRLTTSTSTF

| fold increase in binding with 100 nM bafilomycin A1 against untreated cells [fold] | Substance |
| --- | --- |
| 2.5 | HA-BNIP3 (WT) (natural protein) |
| 9 | HA-BNIP3 S17E (natural protein) |
